Assay results published in article PMC7549792.

Biological target: Human serum albumin domain I (human)
Test: SEC; analytical Superdex 75 10/300 calibrated with known proteins; 100 uL of purified DomI at 90 ug/mL; Tris 50 mM, pH 8, 100 mM NaCl; 0.8 mL/min; dimer non-covalent by reducing and non-reducing SDS-PAGE

stoichiometry N: 2
Substance: Human serum albumin domain I (domain or fragment)
